The target in assay [1] is VEGF (vascular endothelial growth factor) (UniProt P15692-4 27-191, limits assumed). The assay can be described thus: cell-based or functional assay.
The target in a further assay is T1, VEGF165 (UniProt P15692-4 27-191).
T1 construct: P15692 is the human VEGFA entry; VEGF165 is one isoform of that entry; also called VEGFA isoform 165
The assay can be described thus: in vitro binding; method not stated.

Sequence of VEGF (vascular endothelial growth factor) (P15692 other isoform, or with tags, fused parts or gaps limits assumed): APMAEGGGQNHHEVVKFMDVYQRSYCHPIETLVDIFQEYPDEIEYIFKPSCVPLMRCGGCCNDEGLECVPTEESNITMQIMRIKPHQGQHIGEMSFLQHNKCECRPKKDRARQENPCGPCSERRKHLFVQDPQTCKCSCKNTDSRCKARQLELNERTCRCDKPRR
T1 sequence (P15692 other isoform, or with tags, fused parts or gaps limits assumed): as above

B1: scFv3, anti-VEGF-scFv comprising SEQ ID No.: 3 (scFv)
scFv: EIVMTQSPSTLSASVGDRVIITCQASEIIHSWLAWYQQKPGKAPKLLIYLASTLASGVPSRFSGSGSGAEFTLTISSLQPDDFATYYCQNVYLASTNGANFGQGTKLTVLGGGGGSGGGGSGGGGSGGGGSEVQLVESGGGLVQPGGSLRLSCTASGFSLTDYYYMTWVRQAPGKGLEWVGFIDPDDDPYYATWAKGRFTISRDNSKNTLYLQMNSLRAEDTAVYYCAGGDHNSGWGLDIWGQGTLVTVSS
notes: About 26.3 kDa
Take B1: the “VEGF induced HUVEC proliferation, IC50” value in assay [1] worked out at 190 pM. Besides, the Kd with VEGF165 came to 28.4 pM.
